Measured values as given in patent publication US20080090755A1.

Legend:
activin = test: cell-based or functional assay
[1] = target: growth/differentiation factor-8 (GDF-8) (UniProt O14793); test: cell-based or functional assay
Chain of UniProt O14793 (O14793 267-375 limits assumed): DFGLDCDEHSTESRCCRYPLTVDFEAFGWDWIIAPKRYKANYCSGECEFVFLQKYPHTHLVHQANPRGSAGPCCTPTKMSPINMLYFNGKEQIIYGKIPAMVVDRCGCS

follistatin
inhibition of elevation in standardized luciferase activity due to activin ((CAGA)12-MLP-Luc reporter assay, HEK293 cells) (activin): 100%
inhibition of elevation in standardized luciferase activity due to GDF-8 ((CAGA)12-MLP-Luc reporter assay, HEK293 cells) [1]: 100%
